A short description of this data set: soluble on expression in E. coli; label from the status in PepcDB or PDB records.
“AHHHHHHGSGGLALEGRSIVFASGKGGTGKTTTVANIGVALAQFGKEVILIDADITMANLSLILGMEDIPITLHDVLAGEAELKDAIYEGPAGVKVIPGGLSLEKVKKARPERLRELIKEISQMGDFILIDAPAGLELTSVTALLIGKELIIVTNPEISAITDSLKTKLVAEKLGTLPLGAILNRVTSEKTELSKEEIEAILEVPVIGIVPEDPEVKRASAYGVPLVIKNPTSPAAIAYKQIAAKLAGIKWTPPEPESPVKRIFKALFGGKR”: the “soluble on expression in E. coli” value is on record as “soluble”.
Then “MGSDKIHHHHHHMIRGLRQIEPYVAGVQPAERKMIKLNTNENAYGASPKVREALANFDVDNLRKYSTLEQADLRAALANNLKVKPEQLMIANGSDDVLSIAFLAFFNNDEPVLFPDLTYGFYKVWADLYRVNYHEIPLAEDFTINTEDYLADNGGIILTNPNAPTGIYKPLNEIEKLLKANQDTVVIIDEAYISFGGQSALSLLNKYNNLVITRTFSKDAALAGLRVGYAIANEPLIAVMNAVKHSINPYSVDLLAERLATAAVEDWSYYQENAKKIQKTRAWFSEQLVKQGFDVLPSQANFVLTKPHDLATAKLFEELEARKIYVRYFPKVERIKDYLRISMGTQEEMEEVVKAIEEIRG”, with “not soluble”; and “MTNSVLRVLEHLRAHDHDAIVLAPGDADTPHEYAGFPVIPLASLHWPGYQDVRVSTSPQWTMERYLSEFEPDVVHLAGPFMIGYKGAMAAASLGIPIVAIYQTDIPSYAGRYGLGKLEFYGWYRVRQIHSLAVATYAPSTFSRDQLVSHGVPRVDIWGRGVDKVRFHPSKRSQQLHDEWAPNGEVVIGYMGRLAAEKRVADMTNLADIPNTKLVIVGDGPARAEVEKQLPHAVFTGGLGGEDLPRALASMDVFCSTGELETFCQAVQEAKACGLPVISPRKGGPIDLIDSSRTGWLYEPGDMTDFRSRVIDLVGDDYKRHAMGIAARASIENRTWENLCAELVEHYKEAIRLAGRSTRIRAVLLEHHHHHH”, with “not soluble”.
Then “MAHHHHHHMFGTPVENLTANQIKEELRTLYGVSDFSGCIEQKDLQEKLEKTRETELITHGLKYGPLLQIGNRQSPSGIVTLTHGLGDSANGWESVAVELSRRLPHLLFLLPTASMQPVGINGGAVMNSWYDIRNVSSGNGVTEDAEAIIMSANYLKSLAYTASRRYQVPAGRVVYAGFSQGAVISLAAGLTARIAPAGVAALSGYFAAAEKILPQLCNKSLPVLLCHGTMDNIIPFSAAEKTKETLESLGVGPVTLYSYPMEHSSHPKEINDLEKFLQQVLPGPSSKS”, with “soluble”; and “MLIAITGTPGVGKTTVAKLLAKKLNYEYVSLKDFALEKGCGRRVNDEVEVEIDELAYFIERELKGKNAVLDGHLSHLMPVDLVVVLRAHPKLIGERLRERGYDREKIGENVEAELVDAVLIEAIEEHENVIEVDTTNKSPEDVVEEIVSLINSGIKKRVGIVDWSEVYDEIIPYLRLGGELEHHHHHH”, with “soluble”; and “AKDWFVAVFANMAHNENKITKISDSLKEYNKRVQEKYAKYDSGKGDSKYSETYLQYVEGGSLTSIFGVRSLGINPADGKEIYLRPDGTITYDWNAADQVVIGNEEPKLQGTFGFNLRWKQFSLYSTFMYEFGGQRYNSTLVSKVENAHIQSSNVDRRVLTGRWQKPGDCTPYGRLQTDGVVAVTRPTSRFIQDYNVLTFNSLTLGYDFNAEWLKKARIGLLRVELSGNDLFRVATVRAERGLDYPYSRSFAASVKMSF”, with “not soluble”.
The entry for “MSLKTFIKIILLYLMPILAFATELRPGDRLQIKFPGESAFEKSFQLDHDGKISLPEIGTVKLQGMSLLQARTVLTGKLSNAYKDLSKFDLFLKERRLTVTVLGYVKEPGPVDMPIRANVQMAINSAGGLAQGAQLDKLQIRRSSGIIEFDYKHYLDSGDPSSLPKLEPMDVIFIPASPLIGNVQVEFDARTLTASGDAGEDGEAIKVFGEVHRPGTFAFKEDASVMDMIMRAGGVTRYAGIEQIRVIHQGQPYPFDMREYLDTGNPDLMPKIHQGDVIFIPQATEQVKSGSRTVYVMGEVFKPGAMEMGEGSGFYDLLATAGGPTRFAETRQIRIIRADGKVQPFDLQGYVDSQGRTKLPSIQPGDAILVPEKTDMNEKSWLKVHPNRAVRIIGAVNRPGRYEWASEMTLMDLIAHAGGPIASADTAHLQILQQRKNGNTESVSFDLKSFLDEGHHHHHH” is “not soluble”; for “MDYVDYSNPDNPVITDEGERLAKIHSEADLLVAQCLKRGIWDNLDPAELAGVVSMCTFENRRETGGEAQAVTEAMADSMNSVERIWGELVEDERRHRLPITRQPEAGFATAIHQWASGAPLGYCMAAAAENGAELTPGDFVRWCRQVIDLLEQVAKTAYFDETTRNARQAIDAIRRGVVAIGSLEHHHHHH” it is “soluble”.
With “MINSPRVCIQVQSVYIEAQSSPDNERYVFAYTVTIRNLGRAPVQLLGRYWLITNGNGRETEVQGEGVVGVQPLIAPGEEYQYTSGAIIETPLGTMQGHYEMIDENGVPFSIDIPVFRLAVPTLIH”, the “soluble on expression in E. coli” value was “soluble”.
Then “MEMEKEFEQIDKSGSWAAIYQDIRHEASDFPCRVAKLPKNKNRNRYRDVSPFDHSRIKLHQEDNDYINASLIKMEEAQRSYILTQGPLPNTCGHFWEMVWEQKSRGVVMLNRVMEKGSLKCAQYWPQKEEKEMIFEDTNLKLTLISEDIKSYYTVRQLELENLTTQETREILHFHYTTWPDFGVPESPASFLNFLFKVRESGSLSPEHGPVVVHCSAGIGRSGTFCLADTCLLLMDKRKDPSSVDIKKVLLDMRKFRMGLIATAEQLRFSYLAVIEGAKFIMGDSSVQDQWKELSHEDLEPPPEHIPPPPRPPKRILEPHNGKCREFFPN”, with “soluble”.
“MSSSIPRVYSLGNSAMTYLLALRIAQLPSQPKVPSVVLLLNDQKKLNRFLNNDSKIIVKSSNNNKETYHRQFMASCVPPILSNGEIAPIENLIVSDPSSKFITAQLSKYNKSLRPETNILFLNPSLNLLEHLHRYRWRFDEARPNLFMGFTTPVDVGTIHQEFQLSLKVKGRIQFHIAKIDGFPRMSSTGKSASLSLRGDRQKNEKENNAFYKLFREISRLRSGIGSDLVSFDLHVHGFQDLFFTELEKLILESCTEPLLAVYDCVYKKELLKIPGAQDIIKKLISEQLSIIDRSYPSLNTNPNYSVIFDKERIFSLVMRDLEVNGHKRAKLAQSLNQLNQTNINELNGFFVSLGKYKKCNCKWNDILLTLIKGKQFITKQKALDYHYL”: the “soluble on expression in E. coli” value was “soluble”.
As for “MAHHHHHHMNREQIARRIDLVGPSTGAIVGVATWCALHGAEADAILNYVAEKMKHKDTTDAQRASLVYVIHELLLSCATRGVSENAKRSILKAVSLTLPSAVRDTLRQRASDHTAFLIALQKATEWWGTLNLFPAAWLAKLQCTVQDGQESAGHRTTVPSALMQVANLLQRYQHAKEQWVQNRNIKAEEGRTGSGVASGQDTAAPLAGGGAGASSAVVDDAARRCLIALRKAVESRFERNAAFLAWCEAERAELEGRATTSSADSGVVKMAHGTSPHVPTHSGSGSSYSVKEEGGHSGGPSGEPNDDEDVLGSFFS”, the “soluble on expression in E. coli” value is given as “soluble”.
Then “MGHHHHHHSHMSNTDASGEKRVTGTSERREQIIQRLRQQGSVQVNDLSALYGVSTVTIRNDLAFLEKQGIAVRAYGGALICDSTTPSVEPSVEDKSALNTAMKRSVAKAAVELIQPGHRVILDSGTTTFEIARLMRKYTDVIAMTNGMNVANALLEAEGVELLMTGGHLRRQSQSFYGDQAEQSLQNYHFDMLFLGVDAIDLERGVSTHNEDEARLSRRMCEVAERIIVVTDSSKFNRSSLHKIIDTQRIDMIIVDEGIPADSLEGLRKAGVEVILVGDHASSL”, with “soluble”; and “MCLDVLIHYPQEKADEMISHLCSLAQSRIILSFAPKTCALTLLKKIGSFFPGPSKTTRAYLHREADVIKILESNGFAIQRKEFTKTRFYFSRILEATRSLEHHHHHH”, with “not soluble”.
In the case of “MNNEPLRPDPDRLLEQTAAPHRGKLKVFFGACAGVGKTWAMLAEAQRLRAQGLDIVVGVVETHGRKDTAAMLEGLAVLPLKRQAYRGRHISEFDLDAALARRPALILMDELAHSNAPGSRHPKRWQDIEELLEAGIDVFTTVNVQHLESLNDVVSGVTGIQVRETVPDPFFDAADDVVLVDLPPDDLRQRLKEGKVYIAGQAERAIEHFFRKGNLIALRELALRRTADRVDEQMRAWRGHPGEEKVWHTRDAILLCIGHNTGSEKLVRAAARLASRLGSVWHAVYVETPALHRLPEKKRRAILSALRLAQELGAETATLSDPAEEKAVVRYAREHNLGKIILGRPASRRWWRRETFADRLARIAPDLDQVLVALDEPPAR”, the “soluble on expression in E. coli” value is recorded as “soluble”.

The values are drawn from the DeepSol protein solubility set.
